Numbering of substitutions follows the chain as printed. Values belong to the binder of their own block, whether it stands above or below them.
Legend:
human IL-2Rβ [1] = molecular target: T1, human IL-2Rβ (human, UniProt P14784 27-240, limits assumed); assay: P.E. ELISA, coated protein
T1 construct: recombinant protein, coated or immobilised; also called hu IL-2R; IL-2R beta
T1 sequence: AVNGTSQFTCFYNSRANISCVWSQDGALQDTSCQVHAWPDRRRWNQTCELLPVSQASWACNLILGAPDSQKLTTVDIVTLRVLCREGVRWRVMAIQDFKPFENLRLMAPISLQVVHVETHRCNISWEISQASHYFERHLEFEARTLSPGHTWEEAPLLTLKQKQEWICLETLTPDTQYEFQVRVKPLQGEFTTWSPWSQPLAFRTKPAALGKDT
Experimental: In a binding ELISA, human or mouse IL-2Rα, IL-2Rβ and IL-2Rγ proteins were coated directly on maxisorp microtiter plates overnight at 4° C. Free binding sites were blocked using 4% Marvel in PBS for 1 hour. Next, 1:5 dilution of P.E. in 1% Marvel/PBS were added to wells and incubated for 1 hour. […] Binding specificity was determined based on O.D. at 450 nm values compared to negative controls.

human IL-2Rβ [2] = molecular target: T1, human IL-2Rβ; assay: SPR, P.E. off-rate
Experimental: SPR was performed to determine dissociation rates using Biacore 3000 instrument (GE Healthcare). Briefly, human and mouse IL-2R proteins were immobilized on carboxylmethyl dextran sensor chip (CM5) at approximately 2500 RUs using amine coupling in acetate buffer (GE Healthcare). The VHH-containing P.E. were loaded with a flow rate of 30 uL/min and the off-rates were measured over a 120s period.

- P.E. binding ELISA OD (human IL-2Rβ [1]): 0.197 OD450 nm
- koff (human IL-2Rβ [2]): 0.00293 s⁻¹
B1: FJ1427_P035MP02G03 (VHH)
VHH: QVQLVESGGGLVQPGGSLGLSCAASGFTFSNYAMSWVRQAPGKGLEWVASITGFGRGTDYADSVKGRFTVSRDNAKNTLYLQMNSLKPEDTAVYYCAKYSSSTYYPPTPARGRDYRGQGTQVTVSS
notes: soluble VHH in periplasmic extract; also called clone nr

- P.E. binding ELISA OD (human IL-2Rβ [1]): 1.11 OD450 nm
- koff (human IL-2Rβ [2]): 4.5e-05 s⁻¹
B2: FJ1427_P035MP02E01 (VHH)
VHH: EVQLVESGGGLVQIGGSLRLSCAASGRTFSSITMAYFRQVPGKEREWVAGINFSGTRTFYADSVKGRFLISRDDAKSTMYLQMNSLKPEDTAVYYCAASPRGFYGPGNALYDYWGQGTQVTVSS
notes: as for B1

- P.E. binding ELISA OD (human IL-2Rβ [1]): 0.254 OD450 nm
- koff (human IL-2Rβ [2]): 0.000269 s⁻¹
B3: FJ1427 P035MP02E02 (VHH)
VHH: EVQLVESGGGLVQTGGSLRLSCAASGSQFINDVMGWYRQVPGKQRELVADMDDTGSTKYADSVKGRFTILRDSVKNTAYLQMSNLKPEDTGVYYCKAGLWIKGRHSDYWGQGTQVTVSS
notes: as for B1

- P.E. binding ELISA OD (human IL-2Rβ [1]): 0.263 OD450 nm
- koff (human IL-2Rβ [2]): 0.000444 s⁻¹
B4: FJ1427_P035MP02A05 (VHH)
VHH: B3 VHH
notes: as for B1

- P.E. binding ELISA OD (human IL-2Rβ [1]): 0.553 OD450 nm
- koff (human IL-2Rβ [2]): 0.000292 s⁻¹
B5: FJ1427_P035MP02B05 (VHH)
VHH: B3 VHH with S106F
notes: soluble VHH in periplasmic extract; also called clone nr; 130

- P.E. binding ELISA OD (human IL-2Rβ [1]): 0.183 OD450 nm
- koff (human IL-2Rβ [2]): 0.000714 s⁻¹
B6: FJ1427 P035MP02C03 (VHH)
VHH: B3 VHH with K58E, S106F
notes: soluble VHH in periplasmic extract; also called 14-MP02C03; clone nr

- P.E. binding ELISA OD (human IL-2Rβ [1]): 0.549 OD450 nm
- koff (human IL-2Rβ [2]): 0.000295 s⁻¹
B7: FJ1427_P035MP02G04 (VHH)
VHH: B3 VHH with E1Q, T14A, S106F
notes: as for B1

- P.E. binding ELISA OD (human IL-2Rβ [1]): 0.447 OD450 nm
- koff (human IL-2Rβ [2]): 0.000358 s⁻¹
B8: FJ1427_P035MP02D04 (VHH)
VHH: QVQLVESGGGLVQTGGSLRLSCAVSGSRFISDVMGWYRQVPGKQRELVADMADGGSAKYADSVKGRFSILRDSVKNTVYLQMSSLKPEDTGIYYCKAGLWIAGRHSDYWGQGTQVTVSS
notes: as for B1

- P.E. binding ELISA OD (human IL-2Rβ [1]): 0.206 OD450 nm
- koff (human IL-2Rβ [2]): 0.000334 s⁻¹
B9: FJ1427_P035MP02F05 (VHH)
VHH: B8 VHH with Q1E
notes: as for B1

- P.E. binding ELISA OD (human IL-2Rβ [1]): 0.271 OD450 nm
- koff (human IL-2Rβ [2]): 0.000119 s⁻¹
B10: FJ1427_P035MP02B01 (VHH)
VHH: B3 VHH with E1Q, S106F
notes: soluble VHH in periplasmic extract; also called clone nr; 98

- P.E. binding ELISA OD (human IL-2Rβ [1]): 0.516 OD450 nm
- koff (human IL-2Rβ [2]): 0.000343 s⁻¹
B11: FJ1427 P035MP02F04 (VHH)
VHH: B3 VHH with S106F
notes: as for B1

- P.E. binding ELISA OD (human IL-2Rβ [1]): 0.573 OD450 nm
- koff (human IL-2Rβ [2]): 0.000167 s⁻¹
B12: FJ1427 P035MP02D01 (VHH)
VHH: B3 VHH with E1Q, V5Q
notes: soluble VHH in periplasmic extract; also called clone nr; 100

- P.E. binding ELISA OD (human IL-2Rβ [1]): 0.469 OD450 nm
- koff (human IL-2Rβ [2]): 0.0003 s⁻¹
B13: FJ1427_P035MP02F01 (VHH)
VHH: B8 VHH with Q1E
notes: as for B1

- P.E. binding ELISA OD (human IL-2Rβ [1]): 0.567 OD450 nm
- koff (human IL-2Rβ [2]): 0.000432 s⁻¹
B14: FJ1427 P035MP02G05 (VHH)
VHH: B3 VHH with M34T
notes: as for B1

- P.E. binding ELISA OD (human IL-2Rβ [1]): 0.533 OD450 nm
- koff (human IL-2Rβ [2]): 0.000368 s⁻¹
B15: FJ1427 P035MP02A04 (VHH)
VHH: B3 VHH with A23T, K64N
notes: as for B1

- P.E. binding ELISA OD (human IL-2Rβ [1]): 0.237 OD450 nm
- koff (human IL-2Rβ [2]): 0.000346 s⁻¹
B16: FJ1427 P035MP02C05 (VHH)
VHH: B8 VHH
notes: as for B1

From US20240409645A1 (DUALYX, published 2024)
